Test results reported in patent US20100291106A1 (Novartis, published 2010).

B1: MOR9675 Fab format (Fab, V domains shown)
VH: EVQLVQSGAEVKKPGASVKVSCKASGYTFTGYYINWVRQAPGQGLEWMGIISPNQGTTGYAQKFQGRVTMTRDTSISTAYMELSSLRSEDTAVYYCARGNYDHLDYWGQGTLVTVSS
VL: DIQMTQSPSSLSASVGDRVTITCRASQGISNYLNWYQQKPGKAPKLLIYDASTLQSGVPSRFSGSGSGTDFTLTISSLQPEDFATYYCQQDWHTLPVTFGQGTKVEIK
B2: MOR9556 Fab format (Fab, V domains shown)
VH: EVQLVESGGGLVQPGGSLRLSCAASGFTFSSYWMTWVRQAPGKGLEWVSSIKIKPDGYAASVKGRFTISRDNSKNTLYLQMNSLRAEDTAVYYCARLFYQYFARMDYWGQGTLVTVSS
VL: DIQMTQSPSSLSASVGDRVTITCRASQDISNYLNWYQQKPGKAPKLLIYAASNLQSGVPSRFSGSGSGTDFTLTISSLQPEDFATYYCQQYDSYSPTFGQGTKVEIK
B3: MOR09611 IgG (antibody, V domains shown)
VH: B2 VH
VL: DIQMTQSPSSLSASVGDRVTITCRASQDISNYLNWYQQKPGKAPKLLIYAASNLQSGVPSRFSGSGSGTDFTLTISSLQPEDFATYYCQQHDTFRPTFGQGTKVEIKR
notes: Germlined human IgG1 with leucines 234 and 235 changed to alanines, kappa; also called antibody 9611

Tests used:
[1] = molecular target: T1, human complement C3b protein (human, UniProt P01024 23-667; P01024 749-1663); assay: cell-based or functional assay
[2] = molecular target: T2, cynomolgus complement C3b protein (cynomolgus monkey (Macaca fascicularis)); assay: cell-based or functional assay
human C5 = molecular target: T3, human C5 (human, UniProt P01031 19-673; P01031 678-1676); assay: Direct ELISA at 2 ug/ml C5, 200 nM Fab
T3 construct: Captured by an anti-C5 antibody in the ELISA

human C3d [3] = molecular target: T4, human C3d (human, UniProt P01024 1002-1303); assay: cross reactivity, ELISA on C3d, anti-His detection
T4 construct: domain: C3d

[4] = molecular target: T1, human complement C3b protein; assay: solution equilibrium titration (SET), ECL detection, Fab
[5] = molecular target: T2, cynomolgus complement C3b protein; assay: as above
[6] = molecular target: T1, human complement C3b protein; assay: SPR (Biacore), C3b captured by anti-C3d antibody, Fab as analyte
[7] = molecular target: T2, cynomolgus complement C3b protein; assay: as above
[8] = molecular target: T1, human complement C3b protein; assay: bead proximity assay, C3b-acceptor beads; competitor biotinylated fH
Experimental: (§1) In brief, purified C3b and fP were conjugated to unconjugated acceptor or donor beads (PerkinElmer) using AminoLink Reductant (Pierce) during a 48 h incubation at room temperature. Beads were quenched using Carboxymethoxylamine Hemihydrochloride (Aldrich), and purified by centrifugation at 13000 rpm and three washes with 0.1M TBST. Purified fB(D24G/N260D) and fH were biotinylated during a 30 min incubation with 20-fold molar excess of NHS-Chromogenic-biotin (Pierce) at room temperature, and purified using Zeba 0.5 ml desalting columns (Pierce).
(§2) For C3b-C3b and C3b-fP proximity, Fabs or IgGs respectively were pre-incubated with C3b-Acceptor beads (20 μg/ml) for 60 min at room temperature. C3b-Donor beads or fP-Donor beads (20 μg/ml) were then added, and the plate was incubated overnight at room temperature before reading. For C3b-fB and C3b-fH proximity, antibodies were pre-incubated with C3b-Acceptor beads (20 μg/ml) for 60 minutes at room temperature. Biotinylated fB(D24G/N260D) or fH were then added, and incubated for 60 minutes at room temperature. SA-Donor beads were then added (20 μg/ml) and the plate was incubated overnight at room temperature before reading. Plates were read on the BMG Pherastar (ex=680, em=520-620).

[9] = molecular target: T1, human complement C3b protein; assay: bead proximity assay, C3b-acceptor beads; competitor biotinylated fB(D24G/N260D)
Experimental: as §1, §2

[10] = molecular target: T1, human complement C3b protein; assay: cell-based or functional assay; remark: listed apart in the source
[11] = molecular target: T1, human complement C3b protein; assay: ELISA, C3b or C3 captured by anti-C3d antibody
Experimental: The C3b antibodies were examined to determine whether they were selective for binding to C3b relative to the C3b precursor C3. Briefly, binding selectivity for C3b was determined by performing the following steps. Coat Maxisorp plate Nunc (442404) with anti-C3d rabbit monoclonal (abcam 17453) at 2 μg/ml in Carbonate Buffer at 100 μl/well. Seal plates and incubate at 4° C. overnight. Aspirate plates and wash 3 times with PBS/0.5% Tween 20. Block plates with Diluent (PBS, 4% BSA Fraction V (Fisher ICN16006980), 0.1% Tween 20 (Sigma P1379), 0.1% Triton X-100 (Sigma P234729)) and incubate for 2 h at room temperature or overnight at 4° C. Then wash plates once with PBS/0.5% Tween 20. Dilute purified C3b (complement technologies A114 lot 21) and C3 (complement technologies A113c) at 1 μg/ml in diluent and plate 100 μl per well. Incubate for 1 h at room temperature. Then wash 3 times with PBS/0.5% Tween 20.
Dilute Fabs at 100 nM and subsequent dilutions (or higher concentration) in diluent and plate 100 μl per well. Incubate at room temperature for 1 h. Wash plates 3 times with PBS/0.5% Tween 20. Add 100 μl/well of anti-Histidine-HRP monoclonal detection antibody at 1:400 in diluent and incubate at room temperature for 1 h. Then wash 4 times with PBS/0.5% Tween 20. Add 100 μl of TMB substrate (Pierce 34028) and incubate at room temperature for up to 5 min. Add 50 μl of Stop solution (2N Sulfuric Acid) to each well and read plate at 450 nm and correct for plastic reading at 570 nm.

human C3d [12] = molecular target: T4, human C3d; assay: C3d binding ELISA, IgG titrated from about 0.006 to 100 nM
[13] = molecular target: T1, human complement C3b protein; assay: SPR (Biacore T100), C3b captured by anti-C3d antibody, IgG as analyte, 1:1 model
[14] = molecular target: T2, cynomolgus complement C3b protein; assay: as above
[15] = molecular target: T1, human complement C3b protein; assay: AlphaScreen bead proximity, C3b-Acceptor beads pre-incubated with antibody, then biotinylated fH and SA-Donor beads; blocked ligand: fH [C]
Experimental: as §1, §2

[16] = molecular target: T1, human complement C3b protein; assay: AlphaScreen bead proximity, C3b-Acceptor beads pre-incubated with antibody, then biotinylated fB(D24G/N260D) and SA-Donor beads; blocked ligand: fB [A]
Experimental: as §1, §2

[17] = molecular target: T1, human complement C3b protein; assay: AlphaScreen bead proximity, C3b-Acceptor beads pre-incubated with antibody, then C3b-Donor beads; inhibition of C3b-C3b dimer formation; unit from the axis [Antibody] nM [D]
Experimental: as §1, §2

T4 sequence (P01024 1002-1303 limits assumed): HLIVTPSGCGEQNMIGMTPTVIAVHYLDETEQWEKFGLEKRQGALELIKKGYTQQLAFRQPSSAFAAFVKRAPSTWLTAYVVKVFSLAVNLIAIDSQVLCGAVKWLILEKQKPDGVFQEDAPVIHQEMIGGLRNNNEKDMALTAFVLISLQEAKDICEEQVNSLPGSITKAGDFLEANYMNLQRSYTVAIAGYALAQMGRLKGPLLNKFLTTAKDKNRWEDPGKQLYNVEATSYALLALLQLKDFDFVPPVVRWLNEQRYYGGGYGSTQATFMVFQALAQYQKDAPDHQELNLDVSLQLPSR
T1 sequence (P01024 23-667 P314L, chain 1 of 2): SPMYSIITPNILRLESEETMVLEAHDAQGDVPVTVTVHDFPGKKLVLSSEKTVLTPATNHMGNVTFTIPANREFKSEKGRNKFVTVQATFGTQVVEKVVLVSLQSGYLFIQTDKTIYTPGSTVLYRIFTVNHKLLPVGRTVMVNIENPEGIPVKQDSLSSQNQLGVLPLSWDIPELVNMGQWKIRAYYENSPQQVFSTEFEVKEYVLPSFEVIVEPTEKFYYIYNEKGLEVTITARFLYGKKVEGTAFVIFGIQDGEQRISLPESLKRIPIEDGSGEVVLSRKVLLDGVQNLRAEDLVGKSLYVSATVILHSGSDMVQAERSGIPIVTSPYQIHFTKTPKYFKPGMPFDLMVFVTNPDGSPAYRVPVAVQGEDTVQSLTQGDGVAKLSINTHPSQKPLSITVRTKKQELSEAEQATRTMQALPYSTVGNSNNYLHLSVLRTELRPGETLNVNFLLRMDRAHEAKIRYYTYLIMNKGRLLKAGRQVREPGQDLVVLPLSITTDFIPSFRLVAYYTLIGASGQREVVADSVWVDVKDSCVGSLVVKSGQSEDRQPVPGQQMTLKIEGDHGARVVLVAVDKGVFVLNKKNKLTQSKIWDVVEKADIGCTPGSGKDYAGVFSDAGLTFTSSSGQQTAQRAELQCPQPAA
T1 sequence (P01024 749-1663, chain 2 of 2): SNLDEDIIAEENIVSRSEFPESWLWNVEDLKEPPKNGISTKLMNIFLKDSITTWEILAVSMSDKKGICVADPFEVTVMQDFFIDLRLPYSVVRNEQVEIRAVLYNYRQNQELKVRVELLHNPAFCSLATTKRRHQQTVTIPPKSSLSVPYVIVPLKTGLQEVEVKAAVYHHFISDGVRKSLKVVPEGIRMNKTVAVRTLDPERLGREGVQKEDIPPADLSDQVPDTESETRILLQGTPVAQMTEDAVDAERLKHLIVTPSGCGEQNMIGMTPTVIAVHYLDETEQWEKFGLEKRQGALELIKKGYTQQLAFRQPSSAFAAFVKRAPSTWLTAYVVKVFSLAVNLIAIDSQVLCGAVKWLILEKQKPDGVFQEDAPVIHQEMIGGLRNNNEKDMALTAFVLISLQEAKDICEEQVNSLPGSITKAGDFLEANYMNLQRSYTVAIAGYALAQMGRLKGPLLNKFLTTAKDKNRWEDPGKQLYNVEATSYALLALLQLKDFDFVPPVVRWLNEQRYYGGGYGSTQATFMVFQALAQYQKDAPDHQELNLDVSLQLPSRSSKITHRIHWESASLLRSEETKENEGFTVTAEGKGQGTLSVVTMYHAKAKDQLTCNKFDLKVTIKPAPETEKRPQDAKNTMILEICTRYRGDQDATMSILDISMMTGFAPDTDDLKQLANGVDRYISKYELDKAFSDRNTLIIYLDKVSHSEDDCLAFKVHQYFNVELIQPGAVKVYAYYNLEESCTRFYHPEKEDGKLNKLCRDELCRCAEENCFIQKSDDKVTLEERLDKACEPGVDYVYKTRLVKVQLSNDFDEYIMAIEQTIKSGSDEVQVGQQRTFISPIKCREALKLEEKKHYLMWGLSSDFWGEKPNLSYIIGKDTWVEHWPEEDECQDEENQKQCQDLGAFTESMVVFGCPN
T3 sequence (P01031 19-673 limits assumed, chain 1 of 2): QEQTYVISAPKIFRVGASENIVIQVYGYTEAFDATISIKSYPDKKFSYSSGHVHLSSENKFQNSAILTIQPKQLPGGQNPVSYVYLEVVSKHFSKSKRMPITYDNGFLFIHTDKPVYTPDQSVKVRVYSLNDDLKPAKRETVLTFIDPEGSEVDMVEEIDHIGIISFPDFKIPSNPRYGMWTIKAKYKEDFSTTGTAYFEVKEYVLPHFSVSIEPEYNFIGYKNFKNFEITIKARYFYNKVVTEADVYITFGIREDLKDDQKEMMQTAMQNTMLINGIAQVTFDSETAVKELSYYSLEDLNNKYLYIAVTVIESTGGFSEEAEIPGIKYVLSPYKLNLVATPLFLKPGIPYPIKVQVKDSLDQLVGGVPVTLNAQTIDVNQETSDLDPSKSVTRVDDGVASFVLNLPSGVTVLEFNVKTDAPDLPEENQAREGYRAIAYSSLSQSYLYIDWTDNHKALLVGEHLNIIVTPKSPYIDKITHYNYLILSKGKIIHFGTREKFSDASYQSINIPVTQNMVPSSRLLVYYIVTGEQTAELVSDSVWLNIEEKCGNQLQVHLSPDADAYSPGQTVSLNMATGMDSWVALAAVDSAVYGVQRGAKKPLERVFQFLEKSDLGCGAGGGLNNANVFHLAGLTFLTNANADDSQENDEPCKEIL
T3 sequence (P01031 678-1676 limits assumed, chain 2 of 2): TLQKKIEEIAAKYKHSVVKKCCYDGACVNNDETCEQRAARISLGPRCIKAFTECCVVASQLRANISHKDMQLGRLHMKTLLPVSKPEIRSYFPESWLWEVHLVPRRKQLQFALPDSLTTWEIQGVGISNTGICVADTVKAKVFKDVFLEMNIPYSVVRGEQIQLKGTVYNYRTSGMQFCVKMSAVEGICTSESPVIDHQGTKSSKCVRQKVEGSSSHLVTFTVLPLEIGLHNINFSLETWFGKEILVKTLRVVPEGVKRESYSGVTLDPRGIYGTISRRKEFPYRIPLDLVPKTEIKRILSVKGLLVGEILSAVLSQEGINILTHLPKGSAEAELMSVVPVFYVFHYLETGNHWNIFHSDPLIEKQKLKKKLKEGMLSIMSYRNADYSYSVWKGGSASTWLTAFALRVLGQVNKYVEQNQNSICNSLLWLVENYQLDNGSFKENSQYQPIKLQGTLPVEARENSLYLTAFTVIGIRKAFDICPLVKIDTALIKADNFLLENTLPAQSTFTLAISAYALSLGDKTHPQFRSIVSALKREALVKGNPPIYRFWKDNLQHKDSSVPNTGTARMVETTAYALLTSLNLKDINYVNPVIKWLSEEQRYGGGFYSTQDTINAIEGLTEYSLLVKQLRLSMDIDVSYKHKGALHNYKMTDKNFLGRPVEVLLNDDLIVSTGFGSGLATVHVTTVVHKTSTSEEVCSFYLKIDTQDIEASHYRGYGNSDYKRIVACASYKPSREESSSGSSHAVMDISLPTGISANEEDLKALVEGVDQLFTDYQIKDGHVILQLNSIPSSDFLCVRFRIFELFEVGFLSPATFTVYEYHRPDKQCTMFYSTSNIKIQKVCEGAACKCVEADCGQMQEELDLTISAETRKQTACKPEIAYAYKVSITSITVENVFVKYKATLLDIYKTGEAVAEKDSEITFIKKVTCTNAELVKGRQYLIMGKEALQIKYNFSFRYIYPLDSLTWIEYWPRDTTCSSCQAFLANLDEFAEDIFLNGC

Row | Binder | C3a (nM), human, inhibition of C3a generation [1] [nM] | C3b Dep (nM), human serum, IC50 [1] [nM] | C5a (nM), human, inhibition of C5a generation [1] [nM] | HA (nM), 10% human serum, IC50 [1] [nM] | MAC Dep (nM), human serum, IC50 [1] [nM] | C3b Dep (nM), cyno serum, IC50 [2] [nM] | HA (nM), 10% cyno serum, IC50 [2] [nM] | MAC Dep (nM), cyno serum, IC50 [2] [nM] | binding result (human C5) | binding result (human C3d [3]) | Kd [4] [nM] | Kd [5] [nM] | Kd [6] [nM] | Kd [7] [nM] | IC50 [8] [nM] | IC50 [9] [nM] | further results
1 | B1 | 97 | 11 | 36 | 60 | 3 | 43 | 92 | 14 | no binding (tested: 200 nM) | no binding | 0.052 | 0.241 | 0.121 | 0.562 | 0.2 | 1 | –
2 | B2 | 90 | 24 | 17 | 62 | 4 | 43 | 99 | 18 | no binding (tested: 200 nM) | no binding | 0.0015 | 0.018 | 0.0066 | 0.042 | 0.2 | 0.15 | –
3 | B3 | – | – | – | – | – | – | – | – | – | – | – | – | – | – | – | – | MAC deposition on zymosan, IC50 [10]: ≤ 5 nM; hemolysis of rabbit red blood cells, 10% human or cynomolgus serum, IC50 [10]: ≤ 50 nM; inhibition of C3a and C5a generation during hemolysis, IC50 [10]: ≤ 50 nM; fold binding selectivity for C3b over C3 [11]: > 1000 fold; binding result (human C3d [12]): no binding (tested: 100 nM); Kd [13]: 0.435 pM; koff [13]: 3.1e-06 s⁻¹; kon [13]: 7.13e+06 M⁻¹ s⁻¹; Kd [14]: 0.0183 nM; koff [14]: 0.000128 s⁻¹; kon [14]: 6.97e+06 M⁻¹ s⁻¹; IC50 (read off the curve) [15]: ~0.04 nM; IC50 (read off the curve) [16]: ~0.05 nM; EC50 [17]: 605 nM
